Data on one substance can be found in PMC11272584 (Nature Metabolism, 2024).

Changes are numbered by the printed parent chain.

The target in assay [1] is T1, GIPR E418K (human) (UniProt P48546).
T1 sequence: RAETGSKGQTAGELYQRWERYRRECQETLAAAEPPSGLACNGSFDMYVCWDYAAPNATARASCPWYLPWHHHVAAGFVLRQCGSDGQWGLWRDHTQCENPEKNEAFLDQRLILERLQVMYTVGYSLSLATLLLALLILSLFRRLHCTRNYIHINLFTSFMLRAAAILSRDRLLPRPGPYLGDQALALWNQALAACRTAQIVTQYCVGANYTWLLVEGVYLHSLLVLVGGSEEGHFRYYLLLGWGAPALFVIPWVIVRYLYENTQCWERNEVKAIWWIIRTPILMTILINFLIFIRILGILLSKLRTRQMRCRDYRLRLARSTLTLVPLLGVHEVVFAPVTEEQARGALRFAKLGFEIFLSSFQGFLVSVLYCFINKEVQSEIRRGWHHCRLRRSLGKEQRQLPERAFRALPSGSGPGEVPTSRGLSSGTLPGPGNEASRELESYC

Assay [2] deals with T2, GIPR I221M (human) (UniProt P48546).
T2 sequence: T1 sequence with I200M, K397E

Assay [3] deals with T3, GIPR L304R (human) (UniProt P48546).
T3 sequence: T1 sequence with L283R, K397E

The target in assay [4] is T4, GIPR R336P (human) (UniProt P48546).
T4 sequence: T1 sequence with R315P, K397E

Assay [5] addresses T5, GIPR R43G (human) (UniProt P48546).
T5 sequence: T1 sequence with R22G, K397E

Assay [6] has as its target T6, GIPR E463Q (human) (UniProt P48546).
T6 sequence: T1 sequence with K397E, E442Q

Regarding “β-arrestin 2 (Rluc8-Arrestin-3-Sp1) (from UniProt P32121 1-409) (natural protein)”, the β-arrestin 2 recruitment (BRET) on stimulation with GIP(1-42): logEC50 (Arrestin) (log M (inferred)) in assay [1] was -9.19; in assay [2], -9.38; in assay [3], -9.41; in assay [4], -8.82; in assay [5], -9.1; in assay [6] it was -9.08.
